Assay [1] addresses T1, recombinant His-Strep tagged human Tyro3 extracellular domain (human, UniProt Q06418 41-429).
T1 construct: also called hTyro3 ECD; full Tyro3 ECD
T1 sequence: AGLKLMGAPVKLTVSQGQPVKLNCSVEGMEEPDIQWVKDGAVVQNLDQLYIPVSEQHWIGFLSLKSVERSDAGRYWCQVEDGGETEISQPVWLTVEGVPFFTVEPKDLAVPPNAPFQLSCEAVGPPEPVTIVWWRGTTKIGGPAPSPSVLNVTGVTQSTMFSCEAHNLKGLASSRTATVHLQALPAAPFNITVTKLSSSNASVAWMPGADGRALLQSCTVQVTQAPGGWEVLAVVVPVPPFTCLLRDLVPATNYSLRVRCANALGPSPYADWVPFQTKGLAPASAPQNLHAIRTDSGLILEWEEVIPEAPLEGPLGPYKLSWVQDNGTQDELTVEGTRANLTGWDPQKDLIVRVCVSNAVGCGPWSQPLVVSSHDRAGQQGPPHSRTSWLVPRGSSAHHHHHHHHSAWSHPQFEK
Briefly: BLI (Octet K2), IgG on AHC tips, hTyro3 ECD analyte, 1:1 global fit; kon Error 1,34E+02. On the procedure:
(§1) Affinity determinations were performed using biolayer interferometry on an Octet K2 instrument (Pall/ForteBio) equipped with anti-Human Kinetics (AHC) disposable fiber-optic biosensor tips. All experiments were conducted at 30° C. in the recommended Fortebio running buffer (PBS with 0.1% (w/v) bovine serum albumin (BSA) and 0.02% (v/v) Tween_20). This buffer was also used for dilution of ligand (here the antibody) and of the analyte (here the extra cellular domain of human Tyro3 protein). Samples in a 96-well microplates (No. Black polypropylene low binding plates, Greiner Bio-One, Frickenhausen, Germany) were agitated at 1000 rpm. […] Between measurements, the anti-human Tyro3 biosensor surfaces were regenerated by exposing them to 3 cycles of 5 sec in 10 mM glycine, pH 1.5, followed by 5 sec in PBS. Association phase was measured for 300 seconds, dissociation phase depending on the interaction for 300 seconds depending on dissociation step. […] Affinity, association (kon) and dissociation rate constants (koff) for each antibody were calculated applying a 1:1 interaction model fitting global, Rmax linked by sensor) on the ForteBio data analysis software 9.0.

The target of assay [2] is T1, recombinant His-Strep tagged human …. Put plainly: sandwich ELISA, Strep-tagged hTyro3 ECD captured on StrepMAB plate, IgG 3-fold from 3 µg/mL, anti-human IgG1-HRP. On the procedure:
(§2) A double sandwich ELISA was developed. This assay consisted in measuring the binding of the anti-Tyro3 antibodies to be tested on immobilized strep-tagged entire human Tyro3 ECD captured directly on ELISA plate pre-coated with an anti-strep mAb (StrepMAB-Immo coated microplates from IBA biotech). Briefly, the 96 wells of StrepMAB-Immo coated microplate were washed three times with 300 μL of the PBS Tween 0.2% (referred as ELISA washing solution). The capture of an excess of purified strep tagged hTyro3 ECD protein was achieved by a one hour incubation at room temperature. In these experiments, 3 μg of purified protein diluted in PBS, BSA 1% (referred as ELISA diluent solution) were immobilized per well. The wells were washed three times with 300 μL of the washing solution. The non-specific binding sites on the well surface were blocked during 60 min at room temperature with 200 μL/well of blocking solution (PBS, BSA 3%). The wells were washed five times with 300 μL of the washing solution. Then, 100 μl (in duplicates) of the different concentrations of anti-Tyro3 antibodies to be tested diluted in ELISA diluent solution, were added per well and allowed to incubate during 1 hour at room temperature. An Irrelevant control IgG2656 was also added in this experiment. For anti-Tyro3 antibodies in the ScFv format, experiments were performed with 6 concentrations in duplicates (FIG. 3A). For anti-Tyro3 antibodies in the IgG format, experiments were performed with 9 concentrations in duplicates (FIG. 3B). […] For IgGs experiments, starting concentration for first dilution was 3 μg/ml and then dilutions of 3 fold in the ELISA diluent solution were performed. The wells were washed five times with 300 μL of the washing solution. […] The mix was allowed to incubated 60 min at room temperature.

Assay [3] has the same target. Put plainly: BLI (Octet K2), IgG on AHC tips, hTyro3 ECD analyte, 1:1 global fit; KD Error 5,96E-10. On the procedure: as §1
The target is the same in assay [4]. Put plainly: BLI (Octet K2), IgG on AHC tips, hTyro3 ECD analyte, 1:1 global fit; kdis(1/s); kdis Error 1,42E-05. On the procedure: as §1
For assay [5] the target is unchanged. Briefly: BLI (Octet K2), 1:1 global fit; analyte concentration of this kobs not given. On the procedure: Affinity determinations were performed using biolayer interferometry on an Octet K2 instrument (Pall/ForteBio) equipped with anti-Human Kinetics (AHC) disposable fiber-optic biosensor tips. All experiments were conducted at 30° C. in the recommended Fortebio running buffer (PBS with 0.1% (w/v) bovine serum albumin (BSA) and 0.02% (v/v) Tween_20). This buffer was also used for dilution of ligand (here the antibody) and of the analyte (here the extra cellular domain of human Tyro3 protein). Samples in a 96-well microplates (No. Black polypropylene low binding plates, Greiner Bio-One, Frickenhausen, Germany) were agitated at 1000 rpm. […] Between measurements, the anti-human Tyro3 biosensor surfaces were regenerated by exposing them to 3 cycles of 5 sec in 10 mM glycine, pH 1.5, followed by 5 sec in PBS. Association phase was measured for 300 seconds, dissociation phase depending on the interaction for 300 seconds depending on dissociation step. All measurements were corrected for baseline drift using the double reference substraction, that is to say by subtracting a control sensor without ligand exposed to each concentration of the extra cellular domain of human Tyro3 protein and a reference well with ligand submitted to running buffer only. Affinity, association (kon) and dissociation rate constants (koff) for each antibody were calculated applying a 1:1 interaction model fitting global, Rmax linked by sensor) on the ForteBio data analysis software 9.0.

Assay [6] has as its target T2, cynomolgus Tyro3 ECD, His-Strep tagged.
T2 construct: also called cyno TYRO3 ECD 8hisstrep
T2 extracellular domain: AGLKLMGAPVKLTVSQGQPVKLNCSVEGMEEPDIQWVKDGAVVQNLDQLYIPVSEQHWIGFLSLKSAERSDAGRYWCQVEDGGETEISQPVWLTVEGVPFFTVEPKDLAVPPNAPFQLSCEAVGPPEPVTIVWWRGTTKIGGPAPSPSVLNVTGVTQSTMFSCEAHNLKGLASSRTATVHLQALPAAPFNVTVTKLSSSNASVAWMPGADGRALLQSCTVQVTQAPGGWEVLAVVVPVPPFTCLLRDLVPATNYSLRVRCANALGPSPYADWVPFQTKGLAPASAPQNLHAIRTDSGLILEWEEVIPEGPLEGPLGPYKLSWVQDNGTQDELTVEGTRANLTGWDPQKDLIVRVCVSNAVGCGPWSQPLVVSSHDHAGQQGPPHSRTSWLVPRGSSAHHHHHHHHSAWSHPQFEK
Briefly: sandwich ELISA, Strep-tagged cynomolgus Tyro3 ECD captured on StrepMAB plate, IgG 3-fold from 3 µg/mL, anti-human IgG1-HRP. On the procedure: [The procedure below names another species; the source lists this species under the same test.] as §2

The target in assay [7] is T1, recombinant His-Strep tagged human …. Briefly: BLI (Octet K2), IgG on AHC tips, hTyro3 ECD analyte, 1:1 global fit; KD Error 4,92E-09. On the procedure: as §1
For assay [8] the target is unchanged. Briefly: BLI (Octet K2), IgG on AHC tips, hTyro3 ECD analyte, 1:1 global fit; kon Error 3,95E+02. The procedure: as §1
Assay [9] shares this target. Briefly: BLI (Octet K2), IgG on AHC tips, hTyro3 ECD analyte, 1:1 global fit; kdis(1/s); kdis Error 1,02E-04. The procedure: as §1
For assay [10] the target is unchanged. Briefly: BLI (Octet K2), IgG on AHC tips, hTyro3 ECD analyte, 1:1 global fit; kdis(1/s); kdis Error 1,71E-04. The procedure: as §1
For assay [11] the target is unchanged. Briefly: BLI (Octet K2), IgG on AHC tips, hTyro3 ECD analyte, 1:1 global fit; KD Error 6,89E-09. On the procedure: as §1
The target is the same in assay [12]. Briefly: BLI (Octet K2), IgG on AHC tips, hTyro3 ECD analyte, 1:1 global fit; kon Error 8,90E+02. The procedure: as §1
For assay [13] the target is unchanged. Put plainly: BLI (Octet K2), IgG on AHC tips, hTyro3 ECD analyte, 1:1 global fit; kon Error 1,05E+03. The procedure: as §1
The target is the same in assay [14]. Briefly: BLI (Octet K2), IgG on AHC tips, hTyro3 ECD analyte, 1:1 global fit; KD Error 1,47E-09. On the procedure:
as §1

Assay [15] has the same target. Put plainly: BLI (Octet K2), IgG on AHC tips, hTyro3 ECD analyte, 1:1 global fit; kdis(1/s); kdis Error 9,54E-05. On the procedure:
as §1

Assay [16] has the same target. Put plainly: BLI (Octet K2), IgG on AHC tips, hTyro3 ECD analyte, 1:1 global fit; KD Error 9,30E-10. On the procedure:
as §1

The target is the same in assay [17]. Put plainly: BLI (Octet K2), IgG on AHC tips, hTyro3 ECD analyte, 1:1 global fit; kon Error 7,98E+02. On the procedure: as §1
For assay [18] the target is unchanged. Briefly: BLI (Octet K2), IgG on AHC tips, hTyro3 ECD analyte, 1:1 global fit; kdis(1/s); kdis Error 4,43E-05. On the procedure: as §1

B1: IgG2710 (antibody, V domains shown)
VH: EVQLVQSGADVKKPGASLTISCQASGYTFTDYWISWVRQKPGKGLEWMGVINKYASWTRYGPSFQGHVTISADRSTATAYLQWRSLEASDTAMYYCVRSGGLTSGGTIPEYYQHWGPGTLVTVSS
VL: SYELTQPPSVSVSPGQTARITCSGDALPKKYAYWYQQKSGQAPVLVIYEDSKRPSGIPERFSGSSSGTMATLTISGAQVEDEADYYCYSQNPQGNYFVFGGGTKLTVL
notes: also called IGX2710
With B1, in [1], the kon worked out at 29000 M⁻¹ s⁻¹. In addition, the “EC50 (read off the curve)” value in assay [2] is ~0.03 µg/mL; in assay [6], ~0.01 µg/mL. Besides, in assay [3], the dissociation constant Kd was found to be 73.5 nM. For the same molecule, the koff in assay [4] was 0.00213 s⁻¹. Besides, the kobs in assay [5] was determined as 0.00321 s⁻¹.

B2: IgG2711 (antibody, V domains shown)
VH: EVQLVQSGADVKKPGASLTISCQASGYTFTDYWISWVRQKPGKGLEWMGQIRGQHSSTLYGPSFQGHVTISADRSTATAYLQWRSLEASDTAMYYCVRHGASTSGGTIPEYYQHWGPGTLVTVSS
VL: SYELTQPPSVSVSPGQTARITCSGDALPKKYAYWYQQKSGQAPVLVIYEDAKRSSGIPERFSGSSSGTMATLTISGAQVEDEADYYCYSLSDSGNYFVFGGGTKLTVL
notes: also called IGX2711
Consider B2, for which the Kd in [7] was 307 nM. Moreover, the “EC50 (read off the curve)” value in [2] is ~0.01 µg/mL. Moreover, the kon in [8] came out at 32300 M⁻¹ s⁻¹. In addition, the koff in assay [9] was found to be 0.00992 s⁻¹. For the same molecule, the kobs in [5] was 0.014 s⁻¹. For the same molecule, the binding result in assay [6] is given as “binds”.

B3: IgG2414 (antibody, V domains shown)
VH: EVQLVQSGADVKKPGASLTISCQASGYTFTDYWISWVRQKPGKGLEWMGQINRHASNTMYGPSFQGHVTISADRSTATAYLQWRSLEASDTAMYYCVRSGGATSGGTIPEYYQHWGPGTLVTVSS
VL: SYELTQPPSVSVSPGQTARITCSGDALPKKYAYWYQQKSGQAPVLVIYEDWKRASGIPERFSGSSSGTMATLTISGAQVEDEADYYCYSQERKGNYFVFGGGTKLTVL
notes: also called IGX2414
Take B3: the koff in assay [10] amounted to 0.0144 s⁻¹. For the same molecule, the Kd in assay [11] was found to be 308 nM. For the same molecule, the kon in assay [12] stood at 46900 M⁻¹ s⁻¹. For the same molecule, the kobs in [5] was determined as 0.0203 s⁻¹. For the same molecule, the binding result in assay [6] is on record as “binds”.

B4: IgG2413 (antibody, V domains shown)
VH: EVQLVQSGADVKKPGASLTISCQASGYTFTDYWISWVRQKPGKGLEWMGRIHTYQSSTRYGPSFQGHVTISADRSTATAYLQWRSLEASDTAMYYCVRHHSTTTANPYSSWGPGTLVTVSS
VL: SYELTQPPSVSVSPGQTARITCSGDALPKKYAYWYQQKSGQAPVLVIYEDDKRLSGIPERFSGSSSGTMATLTISGAQVEDEADYYCYSTEINGNYAVFGGGTKLTVL
notes: also called IGX2413
As to B4, in assay [13], the kon amounted to 97300 M⁻¹ s⁻¹. The Kd in [14] was 101 nM. In addition, the “EC50 (read off the curve)” value in assay [2] and in assay [6] was ~0.02 µg/mL in each case. Further, the koff in assay [15] was 0.00987 s⁻¹. Further, in [5], the kobs amounted to 0.0342 s⁻¹.

B5: IgG2415 (antibody, V domains shown)
VH: EVQLVQSGADVKKPGASLTISCQASGYTFTDYWISWVRQKPGKGLEWMGQIRGPASATHYGPSFQGHVTISADRSTATAYLQWRSLEASDTAMYYCVRHQQQTSGGTIPEYYQHWGPGTLVTVSS
VL: SYELTQPPSVSVSPGQTARITCSGDALPKKYAYWYQQKSGQAPVLVIYEDKKRISGIPERFSGSSSGTMATLTISGAQVEDEADYYCYSTSTGGNYMVFGGGTKLTVL
notes: also called IGX2415
On to B5, for which, in [2], the “EC50 (read off the curve)” value was ~0.02 µg/mL. Further, the Kd in assay [16] was 70.2 nM. The kon in assay [17] was found to be 76800 M⁻¹ s⁻¹. Besides, the koff in assay [18] is 0.00539 s⁻¹. The kobs in assay [5] was determined as 0.0102 s⁻¹. In addition, in assay [6], the binding result is recorded as “binds”.

Values taken from patent US20180105596A1 (ELSALYS BIOTECH, published 2018).
